Assays:
Test in all cases: EMSA; strands added sequentially; Anisotropy: 50 mM Tris-HCl pH 7.5, 1 mM DTT, 0.1 mg/mL BSA, 10 nM FAM48, 23 °C (Kd per monomer); gel assay: 10 µM Redβ, 50 µM nt of each oligo, PBS, 37 °C, 1% agarose at 22 °C
Settings in all cases: protein: recombinant; tags: 6xHis removed by thrombin; residual N-terminal GSH; label: 5'-Cy3 and 5'-Cy5; complementary 50-mers; annealed by protein
Redβ K154A = target: T1, Redβ K154A (bacteriophage λ, UniProt P03698 1-261, K154A)
T1 sequence: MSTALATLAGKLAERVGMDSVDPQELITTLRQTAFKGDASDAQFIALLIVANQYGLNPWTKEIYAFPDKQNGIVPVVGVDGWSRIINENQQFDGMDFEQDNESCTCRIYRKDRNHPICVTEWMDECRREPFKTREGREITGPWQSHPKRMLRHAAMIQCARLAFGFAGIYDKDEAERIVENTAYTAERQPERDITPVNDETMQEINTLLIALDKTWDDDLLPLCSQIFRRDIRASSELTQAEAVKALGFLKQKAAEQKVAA

Redβ K69A = target: T2, Redβ K69A (bacteriophage λ, UniProt P03698 1-261, K69A)
T2 sequence: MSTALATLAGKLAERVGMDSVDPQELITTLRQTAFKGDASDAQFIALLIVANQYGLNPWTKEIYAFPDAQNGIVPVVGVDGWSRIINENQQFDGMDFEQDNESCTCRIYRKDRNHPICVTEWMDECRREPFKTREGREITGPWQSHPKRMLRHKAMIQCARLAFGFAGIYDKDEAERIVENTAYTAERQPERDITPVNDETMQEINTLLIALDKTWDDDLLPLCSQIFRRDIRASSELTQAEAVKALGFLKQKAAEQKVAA

Redβ K253A = target: T3, Redβ K253A (bacteriophage λ, UniProt P03698 1-261, K253A)
T3 sequence: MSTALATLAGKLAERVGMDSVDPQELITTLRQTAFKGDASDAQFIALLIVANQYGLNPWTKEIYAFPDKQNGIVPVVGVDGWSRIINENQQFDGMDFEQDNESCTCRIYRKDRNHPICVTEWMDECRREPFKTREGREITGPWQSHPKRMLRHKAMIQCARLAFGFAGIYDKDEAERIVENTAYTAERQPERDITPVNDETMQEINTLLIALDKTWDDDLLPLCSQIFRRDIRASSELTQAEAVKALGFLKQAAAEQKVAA

Redβ K11A = target: T4, Redβ K11A (bacteriophage λ, UniProt P03698 1-261, K11A)
T4 sequence: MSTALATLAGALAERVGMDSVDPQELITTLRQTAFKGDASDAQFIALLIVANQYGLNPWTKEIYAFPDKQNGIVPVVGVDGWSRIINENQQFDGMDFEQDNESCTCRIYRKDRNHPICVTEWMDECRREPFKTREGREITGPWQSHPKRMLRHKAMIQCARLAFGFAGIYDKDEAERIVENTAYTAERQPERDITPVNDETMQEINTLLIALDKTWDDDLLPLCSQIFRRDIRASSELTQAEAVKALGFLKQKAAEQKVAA

Redβ WT = target: T5, Redβ WT (bacteriophage λ, UniProt P03698 1-261)
T5 sequence: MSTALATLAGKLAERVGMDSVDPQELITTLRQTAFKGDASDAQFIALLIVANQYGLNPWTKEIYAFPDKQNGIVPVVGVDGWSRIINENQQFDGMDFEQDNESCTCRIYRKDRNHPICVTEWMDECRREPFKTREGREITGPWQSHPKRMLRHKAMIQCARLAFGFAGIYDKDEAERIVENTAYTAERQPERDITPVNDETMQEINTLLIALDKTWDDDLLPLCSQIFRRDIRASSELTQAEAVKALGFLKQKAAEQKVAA

Redβ K172A = target: T6, Redβ K172A (bacteriophage λ, UniProt P03698 1-261, K172A)
T6 sequence: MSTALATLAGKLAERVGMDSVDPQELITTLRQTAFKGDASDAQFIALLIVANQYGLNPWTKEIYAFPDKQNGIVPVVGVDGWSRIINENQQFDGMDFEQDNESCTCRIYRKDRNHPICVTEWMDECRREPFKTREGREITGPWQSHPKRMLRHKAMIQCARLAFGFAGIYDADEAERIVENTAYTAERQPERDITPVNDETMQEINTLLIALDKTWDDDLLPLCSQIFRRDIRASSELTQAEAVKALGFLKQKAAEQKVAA

Measured: binding result

B1: annealed duplex of Cy3 and Cy5 50-mers, strands added sequentially (dsDNA)
DNA 1: GCGGATGGCTTAGAGCAGAATCGCCCTGCATAGCTCGATTTTTGCGGATG
DNA 2: CCATCCGCAAAAATCGAGCTATGCAGGGCGATTCTGCTCTAAGCCATCCG
no binding: Redβ K154A | Redβ K172A
binds: all other assays above
